# Assay: soluble on expression in E. coli; label from the status in PepcDB or PDB records
row,Sequence,soluble on expression in E. coli
1,MGSDKIHHHHHHMYQEISKLLMYGDLPQDEILYKLGQLFEQFEVGEYNKTELVRDINTQVKRILKVATDYGFDDNLWHNYLTFFLMMSENPFSITCEKVGASDGSVNGLVANDFRIFKKLFDYDFKPIESALGIDCFTQISNYKAIVKKDLMYNHNVSEKVRALSKKLEAAKDEQEFFDVVTGFYKAYGVGMFGLNKAFRIEEHLDGGFSFMPINNMDAVMLDDLIGYEIQKKKLTDNTEAFVQGKKANNVLLFGDSGTGKSTSIKAIVNQYYDDGLRMIEIYKHQFKYLSKIIAAIKNRNYRFIIYMDDLSFEEHEIEYKFLKAVIEGGVETKPDNILIYATSNRRHLIKETWNDRNDQDNSNDKHHSDTVEEKLSLVNRFGVTISYSKPSQKEFFNIVTELARKSGCTLSDEELCREANKWELSHGGISGRTATQFVNYIMANN,not soluble
2,MAHHHHHHMSYSFVVVPPPVPAATPAFEAHVSTLLRHVPHPTFITCTSYSPYFTSAAAESLAAAADTADESANAMEASVTQQALSYLHQCVAADVGLVLTVTATRATSHAESVQSTQGGDQDSQQHPKQHTSSSSASMVPTTTTLTGASRGGTAAILADFIGRTSAAPATKLGTANSQEATRHRSRGLMVLRGDDGGYTRQCMIAAQKGGASASPPSLSPNPYVDFADGVDLLRFIHSTLRGRDGEAMCEITGDEPAGAAVCLCIGGYPQGHVLDRQWGADAATAAAVPSAQSPLPCQTLASLRFLDEVDTVFADTEAQLRRAQGTHSAPRPPSLESCVEAAEALFARLGAVRRLWTTPSYYPPSVRAACTRRTVANKVFLRPPGTRQCVADSAWDGCGSAGAHVVVTQVITSATEFFDYVEDIRNALRSSVPPARGVPCDRGRDGAAATEARGASVPCLQLRAASALPSSSPSLVIVPGLMAPLRAEQFLRSALQLKVIPSVPFQRALREYEGALHSAVETLRSAVSSNAIDVYAEAKERAEACFQEWMVAITVDIVRDLRARGYTHVNFSAFQYGCGDAVGCVVAALAAEGREEVVEEP,not soluble
3,MAHHHHHHSLAKRIVGSTPKQDGFRMPGEFEPQEKVWMIWPERPDNWRDGGKPVQEAFTNVAKAISQFTPMNVVVSQQQFQNCRRQLPPEITVYEMSNNDAWVRDCGPSFVINDHGEIRGVDWTFNAWGGLVDGLYFPWDQDDLVAQKICEIEHVDSYRTDDFVLEGGSFHVDGQGTVLTTEMCLLSEGRNPQLSKEAIEQKLCDYLNVEKVLWLGDGIDPEETNGHVDDVACFIAPGEVACIYTEDQNSPFYEAAQDAYQRLLKMTDAKGRQLKVHKLCCPVKNVTIKGSFKIDFVEGTMPREDGDICIASYMNFLITNDGVIVPQYGDENDHLALEQVQTMFPDKKIVGVNTVEVVYGGGNIHCITQQEPKREG,not soluble
4,MAHHHHHHMKTLAKKTLQGGVSGKCGSQIIIAHGLLGNSTNWMSVGRRLAAHDGVRGRLEEIHMLDMRNHGESPHFNAHTNATMASDIEHFVLQQQRQWQSRAGAEGDGGIVLIGHSMGGFAVMGSMLRRANETSLLLQSGVEELEQRCKRGDYYGWCDEQGNAAEMRAVNRAMGLPETQPLYDILYDCKGDNVARPPRVKAVVIVDITPSTALGTHRQHGQNSSETLDAMVAADLSRVHSFGDGNAELERVGVSNKAMRDFLLTNLRLDPRTKEATWRCNLPVLRADYNSIALGVSGWFLSASEKVSRDRGGELVAPLRCSLPTLFVFGQNSPYNTPEDRRLIPRFFSNAIEVEVEGAGHFVHYEKMQEFVNVVVPFLTEYL,not soluble
5,MLSFVKELNFEINQKKYFIKIYLQPRIKYIKIKIINHQIVCLINHLKLINIAEEFIKNNKLKILKIYENDLKKIKYDEQSLDWIILLGIKFTTIKIKNNNFHCQFNFQKQIIYLYDQNQNLTNTKLLYQKILIYLAEIIFPQIIKNAQNITTLTVKKYVFGFYKSQWGVYNKIKHTIGLSYFLVHYDQDIINYVVIHELAHIKYQHHQKSFWDFVLKYCKNAKIYNNQLKFLEHHHHHH,soluble
6,MAHHHHHHMLRVIVRRLAWRPAAIQHLPDLGSKDAPKKTEDTQRQYRPLSLRARQALAEKSDEVQYHVITQDWFGQRVDTFLTQHHPEWSYETMKTLVQQGHIYRYRKNGKKRFTRITDRLEFDELLVVPTPVFYERQLAPPTGVLQESKKPTHFKLSSQVREMAHNMVLFKNEHVIVINKPHGVPMMPTSDPQEMNIAAMLSAWKYTNSTKPIVCHNLDKETSGCVVLARSKNAHRMLARMFVKRVVPNSVYWGFCVGKPSVNFGRIRMHFEMTRGTKGDIIVARPSPTKTSKVGIAEFVVNASALEFGSFISFYPLTTRRHQERIMAAHALRSPLLGDAKYGGESAFPSSMSLFWDPEDKGLPLHLHHRKIQLPYKNSTGEFVCVTAPLPIHMEKTFKKLGWPCDVDDPLIPG,not soluble

# — the DeepSol protein solubility set
